Reference: patent JP2010254663A
Read-outs that look alike come from different tables or passages of the source.

How the values were obtained:
[1] = biological target: HAMA血清タイプ1(Roche製、品番:1767275); experiment: forward sandwich ELISA with anti-hCEA antibodies and HAMA serum type 1, inhibitor at 1 ug/ml
[2] = biological target: HAMA血清タイプ1(Roche製、品番:1767275); experiment: as above; remark: listed apart in the source

Substance: マウスIgG(CHEMICON製、品番:PP54) (antibody)
- HAMA抑制率 [1]: 61%
- HAMA抑制率 [2]: 39%

Substance: Heterophilic Blocking Reagent1(SCANTIBODIES LABORATORY，INC.製、品番:3KC534−075)
- HAMA抑制率 [1]: 68%

Substance: MAK33−IgG1(Roche製、品番:1200941) (antibody)
- HAMA抑制率 [1]: 69%
- HAMA抑制率 [2]: 51%
